The text below walks through data of article PMC7374715, “Conservation of Cdc14 phosphatase specificity in plant fungal pathogens: implications for antifungal development” (Scientific Reports, 2020).

The test system of data set [1] is O=[N+]([O-])c1ccc(OP(=O)(O)O)cc1. The experiment in a line: purified protein, by the assay type.
The test system of data set [2] is Cc1cc(=O)oc2c(F)c(OP(=O)(O)O)c(F)cc12. The experiment in a line: purified protein, by the assay type.
Where [3] appears, read: other: pNPP, 25 mM HEPES pH 7.5, 30 °C, mean of 3 ± SD.
Setting [4] is: other: DiFMUP, 0.5 nM enzyme, pH 7.5, 30 °C, mean of 3 ± SD.

In general, Km refers to the substrate concentration at which the rate is half of its maximum. A word on the kcat: it is the number of substrate molecules converted per active site and unit of time at saturation. What is called kcat/Km is the turnover number divided by the Michaelis constant.

MoCdc14 (Pyricularia oryzae 70-15): the Km was 25 ± 1 mM in data set [1] (pH 7.5, 30.0 °C) and 0.044 ± 0.011 mM in data set [2] (pH 7.5, 30.0 °C).

As to “CgCdc14 (Colletotrichum gloeosporioides)”, in data set [1] (setting [3]), the Michaelis-Menten constant (Km) came to 30 ± 4 mM, the catalytic constant (kcat) was found to be 0.6 ± 0.1 s⁻¹ and the specificity constant (kcat/Km) worked out at 20 ± 2 M⁻¹ s⁻¹. Further, in data set [2] (setting [4]), the Km stood at 0.078 ± 0.012 mM, the kcat is 7 s⁻¹ and the kcat/Km stood at 86000 ± 6100 M⁻¹ s⁻¹.
